One test deals with T1, TNKS2 ARC4 (Homo sapiens, UniProt Q9H2K2).
T1 construct: The cell was filled with TNKS2 ARC4 (488–649); His6-GST; made in house; host or cells: E. coli
T1 sequence (Q9H2K2 488-649): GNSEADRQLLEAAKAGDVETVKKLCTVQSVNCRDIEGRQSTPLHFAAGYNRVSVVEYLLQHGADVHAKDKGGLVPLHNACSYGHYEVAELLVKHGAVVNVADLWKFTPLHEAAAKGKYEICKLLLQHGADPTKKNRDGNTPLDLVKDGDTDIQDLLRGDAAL
Nature of the test: Fluorescence polarisation (FP) competition assay with Cy5-labelled TBM peptide probe. The test is classed as binding. Particulars: 5 nM Cy5-RSPPDGQS probe, 5 µM TNKS2 ARC4. The text has this: Given the anticipated impairment of cell permeability by the N-terminal TBM arginine, we investigated whether the guanidine group could be substituted. To prioritise synthesis efforts, we followed an in-silico docking approach, exploring the importance of the positive charge and hydrogen bonding interactions, linker lengths/flexibility and side chain geometry (see Supplementary Materials and Methods for details). From commercially available side chain alternatives, we identified five potential candidates for R replacements: 1H-imidazole-5-pentanoic acid, 1H-imidazole-1-pentanoic acid, 7-aminoheptanoic acid, D-arginine and L-citrulline (Supplementary Fig. 1). We next synthesised 3BP2 TBM octapeptides, incorporating the five arginine substituents at position 1, followed by fluorescence polarisation (FP) assays to assess competition of the peptides with a Cy5-labelled TBM peptide probe (Supplementary Fig. 1). We used a 16-mer TBM peptide (LPHLQRSPPDGQSFRSW, W introduced to measure A280) derived from the model substrate 3BP2, a signalling adapter protein[4], as a positive control for a competitor, and a corresponding non-binding TBM peptide bearing a glycine-to-arginine substitution at position 6[4] as a negative control. […]
Fluorescence polarisation assay
Unlabelled arginine substituent peptides were titrated up to 1 mM in the presence of 5 nM of a labelled peptide probe (Cy5-RSPPDGQS, JPT Peptide Technologies) and 5 µM TNKS2 ARC4. 3BP2 16-mer peptide was used as a positive control, and the same peptide with the glycine at position 6 mutated to arginine (G6R) was used as a negative control. Plus F ProxiPlates (PerkinElmer) were used with a 2103 Envision Multilabel plate reader (PerkinElmer), fitted with 620 nm (excitation) and 688 nm (emission) filters. Filter bandwidths were 10 nm. A Nanodrop 2000 was used for measuring protein and probe concentrations by UV absorption. TNKS2 ARC4 protein was thawed from -80 ° C, and centrifuged at 13,000 […]
Two independent experiments were performed in technical duplicate. A 2´ stock solution containing TNKS2 ARC4 protein (10 µM) and fluorescently tagged probe (10 nM) in assay buffer (25 mM HEPES-NaOH pH 7.5, 100 mM NaCl, 1 mM TCEP, 0.01% CHAPS) was prepared. A 2-fold dilution series of untagged peptide in assay buffer was made (0 – 2 mM).
Protein and peptide stock solutions were mixed 1:1. Blank samples contained assay buffer only. The plate was sealed, centrifuged for 1 min at 1000 ´ g, and then incubated in the dark for 30 min before reading. Readings were taken with 50 flashes per well, and measured in millipolarisation (mP) units. Data were exported to Microsoft Excel, and analysed in GraphPad Prism 6.0. The means of technical duplicate values were calculated for both experiments, and FP values were plotted against unlabelled peptide concentration. Curves were normalised using the overall mean maximum and minimum FP values of the control 3BP2 TBM peptide. Curves were fitted using a non-linear regression, log(inhibitor) vs. response – variable slope (four parameters) model.
Multiple sequence alignments and amino acid identity mapping
Sequences of tankyrase ARCs were aligned using ClustalX (version 2.0) 4. […]
Supplementary Figure 1. Binding of TBM peptides containing arginine substituents to TNKS2 ARC4, measured in a fluorescence polarisation (FP) competition assay. Data points are means of technical duplicates from two independent experiments. […]
On the technique in general: Fluorescence polarisation rises when a labelled molecule tumbles more slowly, as on binding a larger partner.

Another test deals with T2, TNKS2 ARC5 (Homo sapiens, UniProt Q9H2K2).
T2 construct: followed by TNKS2 ARC5 (1 μL, 100 μM stock); His6-GST; made in house; host or cells: E. coli
Nature of the test: WaterLOGSY NMR assay. The test is classed as binding. The text has this: 39 hits from the DSF screen were suitable for follow-up by ligand-observed NMR methods. We re-purchased fragments and performed T2 relaxation-edited (CPMG-edited) and waterLOGSY experiments for each fragment with TNKS2 ARC5. We explored saturation transfer difference (STD) NMR, also using TNKS2 ARC5, but the assay was not sensitive enough to produce a reliable binding signal, likely due to the relatively small size of a single ARC protein (data not shown). High ligand concentrations were required to achieve sufficient signal, which in turn could lead to false-positive hits due to non-specific binding.
Using the relaxation-edited assay, we tested each fragment in three independent measurements (Fig. 2C), unless we obtained two negative results (non-binding) in the first two experiments. […] As a negative NOE for the compound-only sample could indicate aggregation, we flagged these compounds as potentially problematic. We identified 14 fragments that bound to TNKS2 ARC5 by both relaxation-edited and waterLOGSY methods (0.78% hit rate). […]
Fragments were dispensed in duplicate into a 384-well plate (250 nL, 100 mM stock in DMSO). […] Solutions were transferred to 1.7 mm NMR tubes using a Gilson liquid handling system. ^1H NMR spectra were recorded, with the DMSO signal dampened. […]

T2 sequence (Q9H2K2 641-800): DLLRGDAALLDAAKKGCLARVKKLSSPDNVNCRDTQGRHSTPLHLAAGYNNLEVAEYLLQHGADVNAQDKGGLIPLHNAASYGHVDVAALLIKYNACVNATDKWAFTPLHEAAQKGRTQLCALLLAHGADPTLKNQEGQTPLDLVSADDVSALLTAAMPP

For orientation: IC50 means the concentration at which inhibition is half-maximal. Compound “LPHLQRSPPDGQSFRSW [3BP2 16-mer peptide, 16-mer TBM peptide derived from 3BP2, W added for A280, N-terminus acetylated, C-terminus amide-capped; positive control, reference compound]” registered a half-inhibitory concentration (IC50) in the test with TNKS2 ARC4 of 22 µM.

With `O=C(NCc1ccco1)c1ccc2nccnc2c1` [compound 9], on TNKS2 ARC5, the waterLOGSY result was “negative NOE signal”.

For the origin of these results see publication PMC6911004, “Fragment-based screening identifies molecules targeting the substrate-binding ankyrin repeat domains of tankyrase” (Scientific Reports, 2019).
